Results: PMC7979749, “Structural basis of the dynamic human CEACAM1 monomer-dimer equilibrium” (Communications Biology, 2021)
Substitutions are numbered along the chain they refer to. In names and notes the source's numbering stands.

Assays:
TIM-3 IgV (Homo sapiens) = TIM-3 IgV (Homo sapiens) (UniProt Q8TDQ0); conditions: cited from earlier work
[1] = target: CEACAM1 IgV (Homo sapiens) (UniProt P13688); conditions: cited from earlier work
[2] = target: human CEACAM1 IgV domain, N97A mutant (human) (UniProt P13688); experiment: NMR titration; 15N-HSQC spectra at varying protein concentration (N97A 16-500 μM; WT 10 μM and 1 mM); 10 mM HEPES, 50 mM NaCl, pH 7.0, 25 °C; dimer to monomers; rough estimate from peak trajectories of Q44 and A49
[3] = target: the molecule itself; experiment: SEC-MALS; samples at 100 μM injected onto TSK-gel Bioassist G4SWxl, 10 mM HEPES pH 7.4, 150 mM, 0.5 mL/min; self-association, monomer to dimer
[4] = target: the molecule itself; experiment: crystal structure; mutant proteins concentrated to 10 mg/ml (exceeding 800 μM); molecular replacement with PDB 4QXW; self-association in the asymmetric unit

Chain of TIM-3 IgV (Homo sapiens) (Q8TDQ0 22-124): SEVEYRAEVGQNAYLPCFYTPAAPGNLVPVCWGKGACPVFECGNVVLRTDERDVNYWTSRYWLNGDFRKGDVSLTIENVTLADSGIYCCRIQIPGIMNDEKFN

For CEACAM1 IgV (from UniProt P13688), the Kd (TIM-3 IgV (Homo sapiens)) is given as 2.5 µM and the Kd [1] is given as 0.45 µM.

“human CEACAM1 IgV domain, N97A mutant (from UniProt P13688 35-141) (domain or fragment)” showed a Kd [2] greater than 1000 µM.

B1: human CEACAM1 IgV domain, V39A mutant (domain or fragment)
chain: QLTTESMPFNVAEGKEVLLLVHNLPQQLFGYSWYKGERADGNRQIVGYAIGTQQATPGPANSGRETIYPNASLLIQNVTQNDTGFYTLQVIKSDLVNEEATGQFHVY
notes: unglycosylated; also called hCEACAM1 V39A
B1: binds [3].

B2: human CEACAM1 IgV domain, I91A mutant (domain or fragment)
chain: B1 chain with A39V, I91A
notes: unglycosylated
B2: binds [4].

B3: human CEACAM1 IgV domain, wildtype (domain or fragment)
chain: AQLTTESMPFNVAEGKEVLLLVHNLPQQLFGYSWYKGERVDGNRQIVGYAIGTQQATPGPANSGRETIYPNASLLIQNVTQNDTGFYTLQVIKSDLVNEEATGQFHVY
notes: Carcinoembryonic antigen-related cell adhesion molecule 1 (CEACAM1), human, N-terminal IgV domain; NMR samples were 15N/13C or 15N/13C/2H labelled; also called hCEACAM1 WT IgV; WT; source: isotope-labelled samples expressed from E. coli in M9 minimal medium, purified
In the case of B3, the “stoichiometry N” value [3] is reported as 2.
